Paper PMC5432316

Molecular target: recombinant gC1q domain of EMILIN1 (UniProt Q9Y6C2)
Assay: cell adhesion assay (CAFCA, Centrifugal Assay for Fluorescence-based Cell Adhesion); ligand as substrate in CAFCA miniplates; calcein AM-labelled cells centrifuged onto the substrate, 20 min at 37°C, then centrifuged at 500 rpm; bound cells read by fluorescence; for HaCat cells also with integrin blocking antibodies

UniProt Q9Y6C2, sequence (Q9Y6C2 22-1016): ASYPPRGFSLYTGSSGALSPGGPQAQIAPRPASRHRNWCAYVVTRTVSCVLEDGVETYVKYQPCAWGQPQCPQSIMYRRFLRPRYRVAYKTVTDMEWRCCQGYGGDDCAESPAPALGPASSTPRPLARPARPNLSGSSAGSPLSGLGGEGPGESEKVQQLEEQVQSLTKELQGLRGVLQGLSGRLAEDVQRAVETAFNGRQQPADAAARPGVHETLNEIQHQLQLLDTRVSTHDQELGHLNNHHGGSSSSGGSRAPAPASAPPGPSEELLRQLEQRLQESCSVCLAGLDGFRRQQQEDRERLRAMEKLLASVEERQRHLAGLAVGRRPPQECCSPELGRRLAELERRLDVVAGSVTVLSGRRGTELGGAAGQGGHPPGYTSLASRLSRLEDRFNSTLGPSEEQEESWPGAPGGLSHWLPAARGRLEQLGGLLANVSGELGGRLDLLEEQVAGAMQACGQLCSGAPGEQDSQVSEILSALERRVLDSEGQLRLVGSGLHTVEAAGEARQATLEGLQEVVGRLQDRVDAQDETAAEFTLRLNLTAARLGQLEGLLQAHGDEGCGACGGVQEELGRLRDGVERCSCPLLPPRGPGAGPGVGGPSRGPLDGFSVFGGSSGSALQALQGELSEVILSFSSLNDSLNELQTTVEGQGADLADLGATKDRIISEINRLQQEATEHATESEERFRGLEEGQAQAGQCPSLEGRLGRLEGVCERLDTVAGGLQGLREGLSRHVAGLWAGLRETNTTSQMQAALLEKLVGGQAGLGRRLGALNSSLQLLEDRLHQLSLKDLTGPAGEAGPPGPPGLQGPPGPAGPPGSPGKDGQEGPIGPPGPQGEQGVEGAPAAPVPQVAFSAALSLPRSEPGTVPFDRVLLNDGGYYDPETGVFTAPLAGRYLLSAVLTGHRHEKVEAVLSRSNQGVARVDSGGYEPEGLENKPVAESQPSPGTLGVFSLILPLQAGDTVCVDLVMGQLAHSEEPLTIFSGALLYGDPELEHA

| Substance | percentage of adhesion |
| --- | --- |
| α4β1 integrin on HT29 cells transfected with the wild type α4 integrin chain (from UniProt P13612 34-1032; P05556 21-798) (receptor) | 90% |
| α4β1 integrin on SW480 cells transfected with the wild type α4 integrin chain (from UniProt P13612 34-1032; P05556 21-798) (receptor) | 60% |
| α4β1 integrin on HT29 cells transfected with the cytoplasmic tail-deleted α4 chain mutant R974 (from UniProt P05556 21-798) (receptor) | 90% |
| α4β1 integrin on SW480 cells transfected with the cytoplasmic tail-deleted α4 chain mutant R974 (from UniProt P05556 21-798) (receptor) | 60% |
